How the values were obtained:
MLL4 3500-3630 = MLL4 3500-3630 (UniProt O14686); assay: MST; settings: EMSA: LightShift RNA EMSA kit protocol, 1 or 2 nM RNA, 30 min at room temperature, 4 or 6% native PAGE, MST buffer, pH and temperature not given in the …
MLL4 4210-4280 = MLL4 4210-4280 (UniProt O14686); assay: MST; settings: apparent Kd; EMSA: LightShift RNA EMSA kit protocol, 1 or 2 nM RNA, 30 min at room temperature, 4 or 6% native PAGE; MST buffer, pH and temperature not given in the …

| Substance | Kd (MLL4 3500-3630) [nM] | Kd (MLL4 4210-4280) [nM] | Kd (MLL4 3500-3630; apparent, from T-jump, aggregation above 1:20 RNA:protein, no saturation) [nM] |
| --- | --- | --- | --- |
| HOTAIR300 | 970 | – | – |
| HOTAIR440 | – | 13000 | 100 |
| MEG3 full length | 722 | – | – |
